What was measured:
[1] = target: T1, δ^1-pyrroline-5-carboxylate reductase (MtP5CR) (Medicago truncatula, UniProt G7KRM5); assay: NAD(P)H oxidation assay at […] nm, kinetic analysis of inhibition; type: biochemical
T1 construct: gene MTR_7g090160; MtP5CR_1, His6-tag cleaved; homodecamer

[2] = target: T1, δ^1-pyrroline-5-carboxylate reductase (MtP5CR); assay: X-ray crystal structure of the cocrystallized complex ([…] Å); type: binding
[3] = target: the molecule itself; assay: crystal structure; space group P1, one decamer in the asymmetric unit; 100 mM HEPES/MOPS pH 7.5, 10% PEG 4000, 20% glycerol, 30 mM MgCl2, 30 mM CaCl2, 19°C; unliganded and with NAD+, NADP+ or L-proline
[4] = substrate: NC(=O)C1=CN([C@@H]2O[C@H](COP(=O)(O)OP(=O)(O)OC[C@H]3O[C@@H](n4cnc5c(N)ncnc54)[C@H](OP(=O)(O)O)[C@@H]3O)[C@@H](O)[C@H]2O)C=CC1; assay: purified protein; conditions: varied: cofactor
[5] = substrate: NC(=O)C1=CN([C@@H]2O[C@H](COP(=O)(O)OP(=O)(O)OC[C@H]3O[C@@H](n4cnc5c(N)ncnc54)[C@H](O)[C@@H]3O)[C@@H](O)[C@H]2O)C=CC1; assay: purified protein; conditions: varied: cofactor
[6] = substrate: O=C(O)C1CCC=N1; assay: steady-state kinetics of the purified enzyme, KM(app); type: biochemical, Medicago truncatula; conditions: NADPH C-terminal domain contains the P5C binding site

For `O=S(=O)(O)CCN1CCN(CCO)CC1` [HEPES, 2-[4-(2-hydroxyethyl)piperazin-1-yl]ethanesulfonic acid], the Ki [1] was 1.83 ± 0.08 mM.

In the case of `NC(=O)c1ccc[n+]([C@@H]2O[C@H](COP(=O)([O-])OP(=O)(O)OC[C@H]3O[C@@H](n4cnc5c(N)ncnc54)[C@H](O)[C@@H]3O)[C@@H](O)[C@H]2O)c1` [NAD^+], the “X-ray crystal structure of the cocrystallized complex (1.85 Å)” value [2] is reported as “In the case of NAD^+ (Figure 8A), the adenine N1 atom interacts with Nδ of Asn65”.

B1: Medicago truncatula δ1-pyrroline-5-carboxylate reductase (enzyme, UniProt G7KRM5 1-274, looked up)
chain: MEIIPIPADSYTLGFIGAGKMAESIAKGAVRSGVLSPSRIKTAIHSNPARRTAFESIGITVLSSNDDVVRDSNVVVFSVKPQLLKDVVLKLKPLLTKDKLLVSVAAGIKMKDLQEWAGHERFIRVMPNTAATVGEAASVMSLGGAATEEDANLISQLFGSIGKIWKADDKYFDAITGLSGSGPAYIYLAIEALADGGVAAGLPRDLALSLASQTVLGAASMATQSGKHPGQLKDDVTSPGGTTIAGVHELEKAGFRGILMNAVVAAAKRSQELS
notes: P5C reductase (EC 1.5.1.2) of Medicago truncatula, isoform MtP5CR_1 (without the 29-residue insert of MtP5CR_2, A2Q2Y7); cDNA from leaf RNA; printed primers run from the ATG to the stop codon; monomer 28.5 kDa; Vector pMCSG68: His6 tag and TEV site at the N-terminus, cut off with TEV protease; Homodecamer (pentamer of dimers); also called MtP5CR; MtP5CR_1; source: E. coli BL21 Gold, purified …
In the case of B1, the “stoichiometry N” value [3] is reported as 10, the Km [4] is reported as 39 ± 3 µM and the Vmax [4] is reported as 36.1 ± 0.7 μkat (mg protein)^−1. The kcat [4] was 1113 s⁻¹, the kcat/Km [4] was 2.85e+07 M⁻¹ s⁻¹ and the Km [5] was 468 ± 22 µM. For the same molecule, the Vmax [5] was 92.4 ± 2.1 μkat (mg protein)^−1, the kcat [5] was 2972 s⁻¹ and the kcat/Km [5] was 6.35e+06 M⁻¹ s⁻¹. It also gave a Km [6] of 20 ± 2 µM.

Reference: PMC4626632, “The structure of Medicago truncatula δ^1-pyrroline-5-carboxylate reductase provides new insights into regulation of proline biosynthesis in plants” (Frontiers in Plant Science, 2015)
